According to patent US20140072983A1:

Key:
[1] = molecular target: biotin-CCR4 peptide conjugate (human); assay: ECL (MSD) bridging assay, biotin-CCR4 peptide on a streptavidin plate, His-CD16a detection; 0% PHS (assay buffer)
[2] = molecular target: biotin-CCR4 peptide conjugate (human); assay: ECL (MSD) bridging assay, biotin-CCR4 peptide on a streptavidin plate, His-CD16a detection; 5% pooled human serum
[3] = molecular target: biotin-CCR4 peptide conjugate (human); assay: ECL (MSD) bridging assay, biotin-CCR4 peptide on a streptavidin plate, His-CD16a detection; 20% pooled human serum

Sequence of biotin-CCR4 peptide conjugate (human) (peptide, as listed by the source): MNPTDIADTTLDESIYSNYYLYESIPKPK

EC50 (read off the curve) [1]: 0.4 µg/mL
EC50 (read off the curve) [2]: 0.4 µg/mL
EC50 (read off the curve) [3]: 0.4 µg/mL
Substance: KW-0761 (antibody)
